Here are results for 8 molecules from US20250051465A1 (published 2025).

Sequences and labels used below:
T1: full length human LEPR on cells (human, UniProt P48357 22-1165)
T1 construct: also called HEK293/Stat3-luc/hLEPR-FL; hLEPR-FL
T1 sequence: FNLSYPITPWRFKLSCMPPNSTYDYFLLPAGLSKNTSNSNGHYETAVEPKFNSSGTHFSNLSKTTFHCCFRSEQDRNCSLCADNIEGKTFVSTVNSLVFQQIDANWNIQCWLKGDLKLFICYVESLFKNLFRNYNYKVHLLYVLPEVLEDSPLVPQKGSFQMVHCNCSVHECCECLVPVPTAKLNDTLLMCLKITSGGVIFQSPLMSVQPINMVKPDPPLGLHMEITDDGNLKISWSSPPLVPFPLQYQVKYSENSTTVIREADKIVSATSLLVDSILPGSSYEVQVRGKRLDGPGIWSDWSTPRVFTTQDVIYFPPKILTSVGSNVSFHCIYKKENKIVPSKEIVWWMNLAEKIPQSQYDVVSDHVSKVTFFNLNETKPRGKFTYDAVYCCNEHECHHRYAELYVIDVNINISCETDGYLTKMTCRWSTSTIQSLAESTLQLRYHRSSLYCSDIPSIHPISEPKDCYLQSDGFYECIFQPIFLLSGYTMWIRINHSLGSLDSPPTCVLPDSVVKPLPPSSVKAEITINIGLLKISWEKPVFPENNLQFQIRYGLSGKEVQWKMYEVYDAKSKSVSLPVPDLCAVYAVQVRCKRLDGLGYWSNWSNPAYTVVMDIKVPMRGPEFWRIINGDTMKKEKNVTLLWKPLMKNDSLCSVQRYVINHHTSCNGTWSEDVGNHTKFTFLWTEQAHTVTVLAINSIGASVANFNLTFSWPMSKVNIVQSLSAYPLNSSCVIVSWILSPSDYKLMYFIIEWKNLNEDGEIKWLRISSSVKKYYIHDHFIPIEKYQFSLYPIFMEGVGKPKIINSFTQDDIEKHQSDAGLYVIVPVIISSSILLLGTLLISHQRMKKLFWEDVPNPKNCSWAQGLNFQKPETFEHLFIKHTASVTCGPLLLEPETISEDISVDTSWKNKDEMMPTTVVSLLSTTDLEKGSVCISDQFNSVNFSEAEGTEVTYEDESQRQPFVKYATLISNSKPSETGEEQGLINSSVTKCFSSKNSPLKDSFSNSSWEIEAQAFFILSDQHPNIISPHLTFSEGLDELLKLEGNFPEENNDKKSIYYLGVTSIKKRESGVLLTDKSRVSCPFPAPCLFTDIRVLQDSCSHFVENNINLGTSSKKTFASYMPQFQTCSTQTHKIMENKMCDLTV

B1: H4H18438P2 (antibody, human IgG4, V domains shown)
VH: QVQLVESGGGVVQPGRSLRLSCAASGFSFNTYGMHWVRQAPGKGLEWVTIIWYDGSIKYYADSVKGRFTISRDNSKNTLYLQMNSLRAEDTAVYYCARGGYSGYLYFDYWGQGTLVTVSS
VL: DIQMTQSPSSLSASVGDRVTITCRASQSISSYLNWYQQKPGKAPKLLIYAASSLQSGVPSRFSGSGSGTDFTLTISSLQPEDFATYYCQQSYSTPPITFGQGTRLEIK
notes: Fully human antibody with human IgG4 Fc (H4H prefix)
B2: H4H16650P2 (antibody, human IgG4, V domains shown)
VH: QVQLVESGGGVVQPGKSLRLSCVASGFTFSSDAMYWVRQAPGKGLEWVAVIYYDGNYQYYEDSVKGRFTISRDNSQNTLDLQMNSLRVDDTAVYFCARLNWDYWYLDLWGRGTLVTVSS
VL: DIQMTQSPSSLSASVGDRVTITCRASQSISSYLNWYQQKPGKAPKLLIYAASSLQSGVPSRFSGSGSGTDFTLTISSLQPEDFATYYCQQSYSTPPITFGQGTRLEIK
notes: as for B1
B3: H4H18417P2 (antibody, human IgG4, V domains shown)
VH: QVQLVESGGGVVQPGRSLRLSCAASGFTFSTYGMHWVRQAPGKGLEWVSVISYDESNKYYADSVKGRFTISRDNSKNALYLQMNSLRNEDTAVYYCARDRPFGLVTGWFDPWGQGTLVTVSS
VL: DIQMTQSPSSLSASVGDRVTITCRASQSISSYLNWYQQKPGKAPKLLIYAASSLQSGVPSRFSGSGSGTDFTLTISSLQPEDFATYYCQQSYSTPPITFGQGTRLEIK
notes: as for B1
B4: H4H18449P2 (antibody, human IgG4, V domains shown)
VH: EVQLVESGGGLVQPGGSLRLSCVASGFTFNKYDMHWVRQTTGKGLEWVSGIDTDGDTYYPGSVKGRFTISRENAENSLYLQMNGLRVGDTAVYYCARWPWSGFYGAFDIWGQGTMVTVSS
VL: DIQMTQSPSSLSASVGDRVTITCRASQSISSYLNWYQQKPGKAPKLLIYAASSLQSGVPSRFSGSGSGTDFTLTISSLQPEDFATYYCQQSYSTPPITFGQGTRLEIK
notes: as for B1
B5: H4H18445P2 (antibody, human IgG4, V domains shown)
VH: QVQLQESGPGLVKPSQTLSLTCTVSGGSISSGGDYWSWIRQLPGKGLEWIGYIYYSGSAYYNPSLKSRGTISIDTSKNQFSLKLTSVTAADTAVYFCVKLRFLEWFLGGWFGPWGQGTLVTVSS
VL: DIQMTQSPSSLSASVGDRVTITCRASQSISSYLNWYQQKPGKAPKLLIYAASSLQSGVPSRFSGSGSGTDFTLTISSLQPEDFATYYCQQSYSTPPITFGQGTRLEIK
notes: as for B1
B6: H4H16679P2 (antibody, human IgG4, V domains shown)
VH: QVQLVESGGGVVQPGRSLRLSCTASGFTFSSYAMYWVRQAPGKGLEWVSVIYYDGSYKYYADSVKGRFTISRDNSKNTLYLQMDSLRAEDTAVYYCASYNWNYWYFDFWGRGTLVTVSS
VL: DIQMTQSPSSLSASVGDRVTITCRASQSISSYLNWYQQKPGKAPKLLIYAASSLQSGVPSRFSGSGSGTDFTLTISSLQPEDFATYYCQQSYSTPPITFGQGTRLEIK
notes: as for B1
B7: H4H17321P2 (antibody, human IgG4, V domains shown)
VH: QVQLVESGGGVVQPGRSLRLSCEASGFSSSDNAMYWVRQAPGKGLEWVSVIYHDGSYKYYEDSVKGRFTIARDNSKNTLYLQMNSLRAEDTAVYYCARYNWNHWYFDVWGRGTLVTVSS
VL: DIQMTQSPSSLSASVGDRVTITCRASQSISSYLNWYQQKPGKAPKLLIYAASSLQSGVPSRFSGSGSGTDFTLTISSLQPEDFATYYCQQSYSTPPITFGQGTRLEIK
notes: as for B1
B8: H4H18446P2 (antibody, human IgG4, V domains shown)
VH: EVQLVESGGGLVQPGGSLRLSCAASGFTFSNYGMTWVRQAPGKGLEWVSAITGGGGSTYYSNSVKGRFTISRDNSKNTVYLRMNSVRAEDTAVYYCAKYKWNFVDDWGQGTTVTVSS
VL: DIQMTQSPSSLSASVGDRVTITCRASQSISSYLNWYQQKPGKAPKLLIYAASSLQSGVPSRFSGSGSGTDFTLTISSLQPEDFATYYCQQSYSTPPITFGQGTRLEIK
notes: as for B1

T2 sequence (P48357 other isoform, or with tags, fused parts or gaps limits assumed): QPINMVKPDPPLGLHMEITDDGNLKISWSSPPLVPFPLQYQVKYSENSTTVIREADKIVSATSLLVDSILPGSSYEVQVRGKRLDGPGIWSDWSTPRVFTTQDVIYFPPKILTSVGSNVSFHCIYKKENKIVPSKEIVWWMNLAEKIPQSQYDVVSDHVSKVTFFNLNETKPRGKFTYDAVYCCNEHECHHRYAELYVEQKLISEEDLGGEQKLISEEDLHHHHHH

One assay concerns the target T2, human LEPR CRH1-Ig (D2,D3)-MMH (human, UniProt P48357 230-427, limits assumed).
T2 construct: domain: CRH1-Ig (D2,D3); Transiently expressed, captured from supernatant on anti-myc beads
In words: Luminex, myc-captured LEPR domain. How it is done:
(§1) Aliquots of microspheres with immobilized anti-myc monoclonal antibodies, prepared as described above, were added individually to 1 mL of the each of these protein supernatants. The microspheres were gently mixed, incubated for two hours at 25° C., washed twice with 1 mL of DBPS, centrifuged to remove the supernatant and finally resuspended in 1 mL of DPBS buffer. Forty-eight μL of anti-myc IgG coupled microspheres from individual reactions with full length human LEPR and with each of the human LEPR domain proteins were withdrawn and mixed together in 3.6 mL of PBS+20 mg/mL BSA+0.05% sodium azide (blocking buffer).
(§2) From this mixed pool, 75 μL of microspheres were plated per well on a 96 well filter plate (Millipore, Cat. No: MSBVN1250) and mixed with 25 μL of individual anti-human LEPR monoclonal antibodies (0.5 or 5 µg/mL), incubated for two hours at 25° C. and then washed twice with 200 μL of DPBS with 0.05% Tween 20 (washing buffer). […] After 30 minutes, the samples were washed twice with 200 μL of washing buffer and resuspended in 150 μL of wash buffer. The Median Fluorescence intensity (MFI) of the microspheres was measured in a Luminex Analyzer.
The molecule B1 gave an MFI of 8880 MFI.

The molecule B2 gave an MFI of 74 MFI.

As to B3, the MFI amounted to 5500 MFI.

B4: the MFI amounted to 42 MFI.

Consider B5, for which the MFI was determined as 40 MFI.

For B6, the MFI is 34 MFI.

As for B7, the MFI turned out to be 15 MFI.

Another assay has as its target T3, human LEPR CRH1 (D1,D2)-MMH (human, UniProt P48357 22-339, limits assumed).
T3 construct: domain: CRH1 (D1,D2); Transiently expressed, captured from supernatant on anti-myc beads
The assay is described as follows: Luminex, myc-captured LEPR domain. How it is done: as §1, §2
Molecule B1 had an MFI of 18900 MFI.

Take B2: the MFI was determined as 4720 MFI.

For the molecule B3, the MFI was determined as 16000 MFI.

B4: the MFI was 2930 MFI.

As to B5, the MFI came to 30 MFI.

For B6, the MFI worked out at 4390 MFI.

Molecule B7 showed an MFI of 2650 MFI.

As to B8, the MFI was 682 MFI.

In a further assay the target is T4, human LEPR CRH1 (D1,D2,D3)-MMH (human, UniProt P48357 22-427, limits assumed).
T4 construct: domain: CRH1-Ig (D1,D2,D3); Transiently expressed, captured from supernatant on anti-myc beads; also called CRH1-Ig (D1, D2, D3)
The assay is described as follows: Luminex, myc-captured LEPR domain. On the procedure:
as §1, §2
The molecule B1 gave an MFI of 6570 MFI.

Molecule B2 registered an MFI of 2560 MFI.

As to B3, the MFI amounted to 3330 MFI.

On to B4, for which the MFI turned out to be 2060 MFI.

B5 came in with an MFI of 22 MFI.

On to B6, for which the MFI was determined as 2800 MFI.

With B7, the MFI stood at 1750 MFI.

The target of a further assay is T5, human LEPR Ig (D3)-MMH (human, UniProt P48357 340-427, limits assumed).
T5 construct: domain: Ig (D3); Transiently expressed, captured from supernatant on anti-myc beads
T5 sequence (P48357 other isoform, or with tags, fused parts or gaps limits assumed): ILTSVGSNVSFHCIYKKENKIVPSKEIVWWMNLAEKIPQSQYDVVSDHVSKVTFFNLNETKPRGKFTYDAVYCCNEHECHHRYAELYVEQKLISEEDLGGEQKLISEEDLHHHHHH
The assay is described as follows: Luminex, myc-captured LEPR domain. How it is done:
as §1, §2
Take B1: the MFI was found to be 30 MFI.

As for B2, the MFI stood at 10 MFI.

In turn, B3 yielded an MFI of 17 MFI.

With B4, the MFI turned out to be 24 MFI.

B5 returned an MFI of 19 MFI.

B6 came in with an MFI of 14 MFI.

B7 had an MFI of 7 MFI.

Regarding B8, the MFI amounted to 25 MFI.

The target of the next assay is T6, human LEPR FNIII-MMH (human, UniProt P48357 636-839, limits assumed).
T6 construct: domain: FNIII; Transiently expressed, captured from supernatant on anti-myc beads
T6 sequence (P48357 other isoform, or with tags, fused parts or gaps limits assumed): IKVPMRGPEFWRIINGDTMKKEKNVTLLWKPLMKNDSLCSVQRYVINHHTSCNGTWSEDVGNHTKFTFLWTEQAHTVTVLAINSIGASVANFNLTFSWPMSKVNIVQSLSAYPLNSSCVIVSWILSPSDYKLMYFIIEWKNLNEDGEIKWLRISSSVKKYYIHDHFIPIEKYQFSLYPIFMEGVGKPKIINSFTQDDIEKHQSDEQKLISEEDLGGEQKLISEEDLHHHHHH
In words: Luminex, myc-captured LEPR domain. On the procedure:
as §1, §2
Turning to B1, the MFI was 25 MFI.

The molecule B2 displayed an MFI of 6 MFI.

Turning to B3, the MFI is 14 MFI.

Molecule B4 returned an MFI of 13 MFI.

On to B5, for which the MFI was found to be 230 MFI.

Molecule B6 displayed an MFI of 10 MFI.

B7 returned an MFI of 40 MFI.

The molecule B8 registered an MFI of 32 MFI.

The target of a further assay is T7, human LEPR Ig-CRH2-FNIII-MMH (human, UniProt P48357 330-839, limits assumed).
T7 construct: domain: Ig-CRH2-FNIII; Transiently expressed, captured from supernatant on anti-myc beads
T7 sequence (P48357 other isoform, or with tags, fused parts or gaps limits assumed): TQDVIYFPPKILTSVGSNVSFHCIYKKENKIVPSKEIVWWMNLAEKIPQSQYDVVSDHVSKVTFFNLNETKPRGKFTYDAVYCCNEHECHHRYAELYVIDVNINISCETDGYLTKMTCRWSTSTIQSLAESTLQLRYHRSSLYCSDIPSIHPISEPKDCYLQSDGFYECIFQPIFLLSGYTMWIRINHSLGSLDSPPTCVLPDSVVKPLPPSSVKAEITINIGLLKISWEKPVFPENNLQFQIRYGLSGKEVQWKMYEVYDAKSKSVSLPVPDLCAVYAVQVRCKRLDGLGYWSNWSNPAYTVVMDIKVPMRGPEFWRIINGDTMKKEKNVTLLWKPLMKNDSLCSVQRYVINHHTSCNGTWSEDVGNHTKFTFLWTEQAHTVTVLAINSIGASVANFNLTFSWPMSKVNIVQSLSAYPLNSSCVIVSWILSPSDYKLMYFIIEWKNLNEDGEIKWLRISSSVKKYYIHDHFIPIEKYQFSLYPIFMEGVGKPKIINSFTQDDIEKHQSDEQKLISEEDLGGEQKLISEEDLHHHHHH
The assay is described as follows: Luminex, myc-captured LEPR domain. On the procedure: as §1, §2
Molecule B1 showed an MFI of 468 MFI.

Take B2: the MFI was 110 MFI.

As to B3, the MFI is 37 MFI.

B4 gave an MFI of 43 MFI.

In the case of B5, the MFI is 14500 MFI.

With B6, the MFI stood at 42 MFI.

B7 registered an MFI of 14 MFI.

B8 displayed an MFI of 16900 MFI.

Another assay has as its target T8, human LEPR CRH1 (D1)-MMH (human, UniProt P48357 22-229, limits assumed).
T8 construct: domain: CRH1 (D1); Transiently expressed, captured from supernatant on anti-myc beads
The assay is described as follows: Luminex, myc-captured LEPR domain. On the procedure: as §1, §2
In the case of B1, the MFI came out at 13 MFI.

For B2, the MFI was 8 MFI.

B3 gave an MFI of 10 MFI.

As to B4, the MFI is 20 MFI.

For the molecule B5, the MFI was 12 MFI.

In turn, B6 registered an MFI of 12 MFI.

On to B7, for which the MFI was 9 MFI.

B8: the MFI was determined as 17 MFI.

A further assay deals with T9, human LEPR CRH2-MMH (human, UniProt P48357 428-634, limits assumed).
T9 construct: domain: CRH2; Transiently expressed, captured from supernatant on anti-myc beads
T9 sequence (P48357 other isoform, or with tags, fused parts or gaps limits assumed): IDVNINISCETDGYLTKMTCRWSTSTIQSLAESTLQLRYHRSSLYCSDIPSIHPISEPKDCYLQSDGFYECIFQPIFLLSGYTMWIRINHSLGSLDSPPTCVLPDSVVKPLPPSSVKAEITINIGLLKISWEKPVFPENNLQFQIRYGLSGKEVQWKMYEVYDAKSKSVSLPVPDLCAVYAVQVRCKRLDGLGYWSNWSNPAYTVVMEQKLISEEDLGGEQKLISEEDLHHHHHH
In words: Luminex, myc-captured LEPR domain. How it is done:
as §1, §2
On to B1, for which the MFI came to 165 MFI.

Molecule B2 registered an MFI of 16 MFI.

The molecule B3 showed an MFI of 39 MFI.

As for B4, the MFI turned out to be 15 MFI.

B5 yielded an MFI of 17 MFI.

In the case of B6, the MFI amounted to 33 MFI.

As to B7, the MFI worked out at 116 MFI.

With B8, the MFI was determined as 65 MFI.

The target in another assay is T1, full length human LEPR on cells. The assay is described as follows: FACS, HEK293/Stat3-luc/hLEPR-FL, 70 nM Ab.
For the molecule B2, the “Binding Ratio” value came to 42 fold over unstained.

On to B6, for which the “Binding Ratio” value is 51 fold over unstained.

B7: the “Binding Ratio” value was 46 fold over unstained.

The target of a further assay is extracellular domain of Macaca fascicularis LEPR fused with the transmembrane and cytosolic domains of human … (Macaca fascicularis; human, UniProt P48357 840-1165). In words: cell-based or functional assay.
As for B2, the “% Activation” value amounted to 82% and the “EC50, STAT3-Luc reporter, IMR-32/STAT3-Luc/MfLEPR cells” value (shortened to “EC50 … IMR-32/STAT3-Luc/MfLEPR cells”) was found to be 0.266 nM.

For B6, the “% Activation” value is 80% and the “EC50 … IMR-32/STAT3-Luc/MfLEPR cells” value was determined as 0.249 nM.

For the molecule B7, the “% Activation” value was determined as 78% and the “EC50 … IMR-32/STAT3-Luc/MfLEPR cells” value turned out to be 0.368 nM.

The target in the next assay is T10, preformed complex of hLEPR-MMH and human Leptin (human, UniProt P41159 22-167).
T10 construct: also called hLEPR-MMH: human Leptin complex; Leptn;LEPR
T10 sequence (P41159 22-167 limits assumed, one chain of several): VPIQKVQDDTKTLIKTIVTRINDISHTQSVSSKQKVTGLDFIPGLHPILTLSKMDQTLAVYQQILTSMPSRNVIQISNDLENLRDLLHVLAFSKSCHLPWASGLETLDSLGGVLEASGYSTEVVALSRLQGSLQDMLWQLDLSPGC
The assay is described as follows: SPR, mAb over preformed hLEPR-MMH:Leptin complex, 25C. How it is done:
The entire study was performed in 10 mM HEPES pH 7.4, 150 mM NaCl, 3 mM EDTA, and 0.05% v/v Surfactant Tween-20 (HBS-ET running buffer) at 25° C.
Turning to B2, the “200 nM mAb Bound (RU)” value came to 81 RU.

On to B6, for which the “200 nM mAb Bound (RU)” value amounted to 90 RU.
